B1: mut-MGLL. 1-303, L169S, L176S: engineered human MGLL 1-303 with cap-domain mutations L169S, L176S; SEQ ID NO: 4, SEQ ID NO: 5 after TEV cleavage (protein)
chain: MVDHHHHHHENLYFQGMPEESSPRRTPQSIPYQDLPHLVNADGQYLFCRYWKPTGTPKALIFVSHGAGEHSGRYEELARMLMGLDLLVFAHDHVGHGQSEGERMVVSDFHVFVRDVLQHVDSMQKDYPGLPVFLLGHSMGGAIAILTAAERPGHFAGMVLISPLVLANPESATTFKVLAAKVLNSVLPNLSSGPIDSSVLSRNKTEVDIYNSDPLICRAGLKVCFGIQLLNAVSRVERALPKLTVPFLLLQGSADRLCDSKGAYLLMELAKSQDKTLKIYEGAYHVLHKELPEVTNSVFHEINMWVSQRTATAGTASPP
modifications: His tag and TEV site; SEQ ID 5 after TEV cleavage; Human

Legend:
[1] = system: MGLL; assay: Kinetic analysis: hydrolysis of Coumarin Arachidonate (C-A) by MGLL constructs; type: biochemical, human; settings: estimated; limited by solubility of C-A; read-out: apparent KM for C-A
Source text: (§1) A small fluorescent substrate, 4-methyl coumarin butyrate (4MC-B) was used to compare the activity of the engineered mutants to the activity of wt-MGLL (hMGLL 1-303) (SEQ ID NO: 3). The catalytic efficiency (kcat/KM) for the hydrolysis of the 4MC-B was similar for wt-MGLL (hMGLL 1-303) (SEQ ID NO: 3) and all MGLL mutants tested (Table 2). A larger more aliphatic fluorescent substrate, Coumarin Arachidonate (C-A), structurally more closely related to the MGLL natural substrate, 2-AG, was used to compare the activity of wt-MGLL (hMGLL 1-303) (SEQ ID NO: 3) to TEV cleaved mut-MGLL (hMGLL 1-303 L169S, L176S) (SEQ ID NO: 5).
(§2) The Michaelis-Menten parameters for the hydrolysis of 4-methylcoumarin butyrate (4MC-B) and coumarin arachidonate (C-A) substrate were determined using 4-5 nM of MGLL in 20 mM Pipes pH 7 and 150 mM NaCl at 37° C. The change in fluorescence due to substrate hydrolysis was monitored using excitation/emission wavelengths of 335/440 in a Safire II instrument from Tecan. The hyperbolic rates versus substrate concentration curves for the hydrolysis of 4MC-B were fit to the Michaelis-Menten equation using Excel.
The apparent kcat/KM ratio for the hydrolysis of C-A was determined at [S]<<KM. […] The kcat/KM values reported are the average from independent values determined from five substrate concentrations ranging from 700 to 40 nM.

[2] = Size exclusion chromatography of MGLL purified in the absence of detergent (aggregation/monomer); type: physicochemical; settings: size exclusion, purified in the absence of detergent
Experimental: A pilot purification of wt-MGLL (hMGLL 1-303) (SEQ ID NO: 3), performed in the complete absence of detergent, generated no protein (data not shown). A second purification of wt-MGLL (hMGLL 1-303) (SEQ ID NO: 3) was done with detergent in the lysis buffer only. Frozen cell pellets for wt-MGLL (hMGLL 1-303) (SEQ ID NO: 3) were thawed, resuspended, and lysed in Bugbuster® lysis buffer for 1 hour at 4° C. Bugbuster® lysis buffer is a proprietary lysis buffer from […] that contains detergent. The lysate was clarified by centrifugation at 40,000×g for 1 hr. No detergent was added at this point or during the rest of the purification. From this point forward, the purification protocol and buffers were the same as described below for mut-MGLL. An average of 2.2 mg of wt-MGLL (hMGLL 1-303) (SEQ ID NO: 3) per liter of cell culture was obtained.
Mutant MGLL (mut-MGLL) constructs were purified in the absence of detergent. Frozen cell pellets were thawed and resuspended in buffer A (50 mM Hepes buffer pH 7.5, 400 mM NaCl, 5% glycerol, 0.05% BME, 1× Complete EDTA-free protease inhibitor cocktail tablets (Roche)), dounce homogenized and mechanically lysed with a microfluidizer processor (Microfluidics). The extract was clarified by centrifugation at 40,000×g for 1 hr. The cleared lysate was loaded on a 1 ml His-Trap FF Crude column (GE-Healthcare) at 4° C. using the AktaXpress system. For larger preparations, a 5 ml His-Trap FF Crude column was used. The column was washed with 10-15 column volumes (CV) of buffer A containing 30 mM imidazole and mut-MGLL was eluted with 5 CV of 50 mM Hepes buffer pH 7.5, 400 mM NaCl, 5% glycerol, 0.05% BME, 400 mM imidazole. In most preparations, 30 mM imidazole was included in Buffer A from the beginning of the preparation to reduce non-specific binding on the His-Trap column. […] Fractions were analysed by SDS-PAGE. […] Purification yields were determined by Bradford assay using the protein assay kit from BioRad according to manufacturer's instruction with BSA as a standard (Bradford 1976).

[3] = Thermofluor thermal stability (melting transition) of MGLL; type: physicochemical
Source text: The Thermofluor® assay is a powerful tool to screen for small molecule inhibitors interacting with a protein's active site or allosteric site. The assay detects small changes in the intrinsic melting temperature of proteins based on binding of ligands. Compounds that interact preferentially with the native form of the protein will increase the Tm, the temperature at which half of the protein is unfolded (Pantoliano et al. 2001). The technique monitors changes in the fluorescent intensity of dyes such as 1-anilinonaphthalene-8-sulfonic acid (1,8-ANS). The fluorescent dyes are quenched in aqueous environments but increase in fluorescence on binding to the hydrophobic core of denatured proteins.
Thermofluor® assays were conducted to characterize wt-MGLL (hMGLL 1-303) (SEQ ID NO: 3) and mut-MGLL (hMGLL 1-303 L169S, L176S) and evaluate if the MGLL mutants could be used for high-throughput screening using Thermofluor®. Three microliters of protein at a concentration of 0.05 mg/ml in 50 mM Pipes pH 7, 200 mM NaCl, 100 μM 1,8-ANS, and 0.001% Tween was added to pre-dispensed compound plates. Wells were overlaid with silicone oil (1 μL, Fluka, type DC 200) to prevent evaporation. Final compound concentrations varied from 150 to 0.15 μM. Assay plates were heated at a rate of 1° C./min for all experiments over a temperature range sufficient to measure protein unfolding. Fluorescence was measured by continuous illumination with UV light (Hamamatsu LC6) supplied via fiber optic and filtered through a custom band-pass filter (380-400 nm; >60D cutoff). Fluorescence emission was detected by measuring light intensity using a CCD camera (Sensys, Roper Scientific) filtered to detect emission at 500±25 nm, resulting in simultaneous and independent readings of all 384 wells. One or more images were collected at each temperature, and the sum of the pixel intensity in a given area of the assay plate was recorded vs temperature, and fit to standard equations to yield the Tm.

[4] = Circular dichroism structural analysis; type: physicochemical; settings: 5 μM protein, 10 mM cacodylic acid pH 7, 140 mM NaCl
Experimental: Circular dichroism experiments were performed on a Circular Dichroism Spectrometer Model 202 from Aviv Instruments Inc. The CD scans of wt-MGLL (hMGLL 1-303) (SEQ ID NO: 3) and TEV cleaved mut-MGLL (hMGLL 1-303 L169S, L176S) (SEQ ID NO: 5) (5 μM protein in 10 mM cacodylic acid pH 7 and 140 mM NaCl) were measured from 200 to 260 nm. Temperature melts were monitored at 210 nm.

[5] = system: MGLL; assay: Kinetic analysis: hydrolysis of 4-methyl coumarin butyrate (4MC-B) by MGLL constructs; type: biochemical, human; settings: substrate 4MC-B; 4-5 nM MGLL, 20 mM Pipes pH 7, 150 mM NaCl, 37° C.; average of 2 or 4 separate assays
Source text: as §1, §2

| Molecule | Km [1] | monomer [2] | quality of the melting transition [3] | Tm (midpoint of the melting transition) ([3]; 0.05 mg/ml protein, 1,8-ANS) | CD scans 200 to 260 nm compared with wt-MGLL purified in the presence of detergent [4] | Kcat [5] | Km [5] |
| --- | --- | --- | --- | --- | --- | --- | --- |
| CCCCC/C=C/C/C=C\C/C=C/C/C=C/CCCC(=O)Oc1ccc2ccc(=O)oc2c1 [C-A, Coumarin Arachidonate] | > 30 µM |  |  |  |  |  |  |
| B1 |  | 90% | strong transition | 56.7 °C | similar | 0.8 s⁻¹ | 136 µM |

Source: US8257698B2, “Protein engineering of monoacylglycerol lipase (MGLL)” (Janssen Pharmaceutica N.V., priority 2008, dated 2012)
